From US20100129369A1 (Eli Lilly, published 2010)

Tests used:
[1] = biological target: T1, PlexinA2-ECD-Fc (human, UniProt O75051 35-1237); test: ELISA, coated ECD-Fc, antibody 0.010 ng/mL
T1 construct: extracellular domain; Bought reagent
T1 sequence (looked up): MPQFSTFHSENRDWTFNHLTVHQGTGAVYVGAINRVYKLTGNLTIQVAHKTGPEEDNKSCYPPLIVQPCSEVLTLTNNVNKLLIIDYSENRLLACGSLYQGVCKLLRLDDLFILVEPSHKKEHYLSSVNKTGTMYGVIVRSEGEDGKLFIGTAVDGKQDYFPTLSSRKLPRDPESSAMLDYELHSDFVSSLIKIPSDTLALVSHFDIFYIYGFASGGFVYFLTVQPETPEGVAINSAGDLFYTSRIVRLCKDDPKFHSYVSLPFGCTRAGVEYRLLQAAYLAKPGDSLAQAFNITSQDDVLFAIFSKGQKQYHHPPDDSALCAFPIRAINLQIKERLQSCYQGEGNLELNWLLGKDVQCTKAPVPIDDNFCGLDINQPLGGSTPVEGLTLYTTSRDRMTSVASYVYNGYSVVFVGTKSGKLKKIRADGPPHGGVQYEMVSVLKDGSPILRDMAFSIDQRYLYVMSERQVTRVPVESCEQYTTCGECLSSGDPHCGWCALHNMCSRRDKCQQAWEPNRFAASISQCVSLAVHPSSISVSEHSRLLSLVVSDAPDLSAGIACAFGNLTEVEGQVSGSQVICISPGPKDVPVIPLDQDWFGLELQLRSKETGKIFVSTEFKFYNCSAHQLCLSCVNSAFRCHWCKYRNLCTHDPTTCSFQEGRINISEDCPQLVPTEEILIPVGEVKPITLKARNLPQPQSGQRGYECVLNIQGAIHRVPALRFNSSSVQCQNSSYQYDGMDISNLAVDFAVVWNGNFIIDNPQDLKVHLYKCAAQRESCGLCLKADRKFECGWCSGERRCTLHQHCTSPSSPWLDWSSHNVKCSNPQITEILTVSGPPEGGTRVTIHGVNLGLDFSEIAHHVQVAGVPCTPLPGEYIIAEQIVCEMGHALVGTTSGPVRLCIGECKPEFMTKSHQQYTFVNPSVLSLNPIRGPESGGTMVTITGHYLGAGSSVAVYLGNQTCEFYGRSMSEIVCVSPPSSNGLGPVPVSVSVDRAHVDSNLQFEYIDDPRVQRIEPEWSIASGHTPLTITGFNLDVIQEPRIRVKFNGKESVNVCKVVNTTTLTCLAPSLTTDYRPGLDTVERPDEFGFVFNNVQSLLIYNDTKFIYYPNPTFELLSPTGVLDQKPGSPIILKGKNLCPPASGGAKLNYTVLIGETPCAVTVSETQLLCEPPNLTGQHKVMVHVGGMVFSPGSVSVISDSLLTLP
Procedure: (§1) Wells of 96-well EIA/RIA high binding plates (Costar, #2592) are coated with 100 μL of 1 μg/mL human c-Met extracellular domain (ECD)-Fc-Flis fusion (SEQ ID NO:72), RON-ECD-Fc (R&D Systems, #1947-MS), or PlexinA2-ECD-Fc (Abnova, Taipei, Taiwan #H00005362-P01) in coating buffer (BioFX Labs, # COAT-1000-01) overnight at 4° C. […] After the plates are washed, 100 μL/well of substrate solution (BioFx, #TMBW-1000-01) are added and the plates are incubated for 10 min. at room temperature. 100 μL/well of stop solution (BioFx, # LSTP-1000-01) are added to stop the reaction. The colorimetric signals are developed and read at 450 nm using a SpectraMax 190 plate reader (Molecular Devices, Sunnyvale, Calif.). c-Met antibody binding to c-Met, RON and PlexinA2 ECDs is proportional to color signal production.

[2] = biological target: T2, RON-ECD-Fc (human, UniProt Q04912 25-957); test: ELISA, coated ECD-Fc, antibody 0.010 ng/mL
T2 construct: extracellular domain; Bought reagent; not shown: Fc part of the bought fusion
T2 sequence (looked up): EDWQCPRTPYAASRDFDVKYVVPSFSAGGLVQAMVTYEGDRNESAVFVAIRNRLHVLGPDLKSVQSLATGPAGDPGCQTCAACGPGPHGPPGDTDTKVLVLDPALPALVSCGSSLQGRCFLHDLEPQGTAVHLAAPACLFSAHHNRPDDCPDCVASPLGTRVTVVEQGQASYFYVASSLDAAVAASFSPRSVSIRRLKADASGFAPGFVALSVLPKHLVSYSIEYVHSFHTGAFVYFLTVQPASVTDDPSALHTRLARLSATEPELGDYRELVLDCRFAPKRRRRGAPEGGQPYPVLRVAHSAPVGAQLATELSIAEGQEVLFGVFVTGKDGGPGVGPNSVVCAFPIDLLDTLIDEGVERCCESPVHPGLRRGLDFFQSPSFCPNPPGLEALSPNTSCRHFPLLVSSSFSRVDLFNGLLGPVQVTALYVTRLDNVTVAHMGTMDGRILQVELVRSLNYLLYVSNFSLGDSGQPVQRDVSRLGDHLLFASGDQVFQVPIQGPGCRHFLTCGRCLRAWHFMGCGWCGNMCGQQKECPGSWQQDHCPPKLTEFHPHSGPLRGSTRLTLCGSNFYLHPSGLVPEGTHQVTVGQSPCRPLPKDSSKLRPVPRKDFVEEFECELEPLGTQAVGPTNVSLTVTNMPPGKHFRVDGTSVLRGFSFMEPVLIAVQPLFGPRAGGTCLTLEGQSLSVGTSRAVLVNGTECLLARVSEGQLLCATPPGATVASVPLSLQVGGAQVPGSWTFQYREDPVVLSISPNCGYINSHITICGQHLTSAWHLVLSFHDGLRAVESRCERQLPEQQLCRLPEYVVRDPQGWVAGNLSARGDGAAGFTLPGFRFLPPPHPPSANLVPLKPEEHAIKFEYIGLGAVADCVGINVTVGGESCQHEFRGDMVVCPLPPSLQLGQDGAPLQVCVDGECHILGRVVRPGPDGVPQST
Procedure: as §1

[3] = biological target: T3, Human c-Met-Flis-Fc ECD (human); test: ELISA, coated ECD-Fc, antibody 0.010 ng/mL
T3 construct: also called human c-Met extracellular domain (ECD)-Fc-Flis fusion; Human cMet-ECD-Fc-Flis
Procedure: as §1

[4] = biological target: T1, PlexinA2-ECD-Fc; test: ELISA, coated ECD-Fc, antibody 2.143 ng/mL
Procedure: as §1

[5] = biological target: T2, RON-ECD-Fc; test: ELISA, coated ECD-Fc, antibody 2.143 ng/mL
Procedure: as §1

[6] = biological target: T3, Human c-Met-Flis-Fc ECD; test: ELISA, coated ECD-Fc, antibody 2.143 ng/mL
Procedure: as §1

T3 sequence (chain, as listed by the source limits assumed): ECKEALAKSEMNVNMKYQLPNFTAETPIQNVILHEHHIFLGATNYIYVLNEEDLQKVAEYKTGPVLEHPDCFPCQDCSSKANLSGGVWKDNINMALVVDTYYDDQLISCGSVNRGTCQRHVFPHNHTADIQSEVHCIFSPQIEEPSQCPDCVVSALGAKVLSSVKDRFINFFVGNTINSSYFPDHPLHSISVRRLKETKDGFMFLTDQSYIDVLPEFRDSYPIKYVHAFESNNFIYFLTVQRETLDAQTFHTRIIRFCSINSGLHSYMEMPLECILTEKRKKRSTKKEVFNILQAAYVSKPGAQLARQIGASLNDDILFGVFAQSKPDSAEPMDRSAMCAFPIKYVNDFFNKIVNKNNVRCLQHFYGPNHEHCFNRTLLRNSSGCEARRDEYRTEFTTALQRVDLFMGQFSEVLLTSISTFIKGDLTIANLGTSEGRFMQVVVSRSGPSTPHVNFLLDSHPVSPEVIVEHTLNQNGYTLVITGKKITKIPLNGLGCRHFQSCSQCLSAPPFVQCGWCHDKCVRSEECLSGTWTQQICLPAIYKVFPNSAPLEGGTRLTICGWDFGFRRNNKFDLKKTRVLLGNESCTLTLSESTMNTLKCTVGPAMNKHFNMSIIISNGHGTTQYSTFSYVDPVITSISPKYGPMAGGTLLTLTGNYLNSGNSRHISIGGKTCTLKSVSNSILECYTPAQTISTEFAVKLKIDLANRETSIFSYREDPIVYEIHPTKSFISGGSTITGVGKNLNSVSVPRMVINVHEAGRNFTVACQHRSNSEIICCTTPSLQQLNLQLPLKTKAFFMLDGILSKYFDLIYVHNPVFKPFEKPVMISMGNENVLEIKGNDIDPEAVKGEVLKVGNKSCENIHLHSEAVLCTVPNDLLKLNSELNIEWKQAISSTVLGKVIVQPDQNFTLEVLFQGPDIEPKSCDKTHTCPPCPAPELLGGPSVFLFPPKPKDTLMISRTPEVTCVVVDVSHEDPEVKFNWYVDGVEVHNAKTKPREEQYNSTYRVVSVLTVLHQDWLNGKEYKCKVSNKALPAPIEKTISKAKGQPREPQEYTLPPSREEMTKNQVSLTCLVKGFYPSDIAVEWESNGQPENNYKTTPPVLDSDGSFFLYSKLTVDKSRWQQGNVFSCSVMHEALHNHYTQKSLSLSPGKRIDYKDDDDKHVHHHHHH

B1: C8-6 (antibody, human IgG2, kappa, V domains shown)
VH: QVQLVQSGAEVKKPGASVKVSCKASGYTFTDYYMHWVRQAPGQGLEWMGRVNPNRGGTTYNQKFEGRVTMTTDTSTSTAYMELRSLRSDDTAVYYCARTNWLDYWGQGTTVTVSS
VL: DIQMTQSPSSLSASVGDRVTITCSVSSSVSSIYLHWYQQKPGKAPKLLIYSTSNLASGVPSRFSGSGSGTDFTLTISSLQPEDFATYYCIQYSGYPLTFGGGTKVEIKR
notes: Called IgG4, kappa; also called Mab C8-6
- Average A450 nm [1]: 0.095 A450 nm
- Average A450 nm [2]: 0.097 A450 nm
- Average A450 nm [3]: 0.335 A450 nm
- Average A450 nm [4]: 0.106 A450 nm
- Average A450 nm [5]: 0.098 A450 nm
- Average A450 nm [6]: 2.42 A450 nm
